Patent publication US20160145328A1

Molecular target: protein A (UniProt P38507)
Test: Heat/Cool phage ELISA: phage-displayed VH, 80 C 10 min then 4 C 10 min, captured on coated protein A; signal as % of untreated sample

## DP47 VH SY_31/32-DE
  Retained binding to protein A (%): 50%
